Measured values reported in US20210147812A1, “Method of Preparing Cancer Spheroid and Method of Selecting Colorectal Cancer Patient” (Kyo Diagnostics K.K., priority 2017, published 2021).

System: CRC-TIC spheroid lines that carried wild-type RAS/RAF genes (HC6T, HC9T, HC11T, HC21T)
Assay: Stimulation of spheroid growth with EGF and/or bFGF, luminescence-based growth monitoring (GEI)
Format: cell-based, human
Settings: HC11T
Experimental: Luminescence was determined daily or 3 days later. The cell growth rate for each well was estimated as the proportion of photon counts to those on day 1. Four or six replicates (with similar statistical power) were analyzed for each data point in all experiments except for the chemical compound screening assays.
To investigate whether EGF and bFGF helped spheroid proliferation in the cancer medium as described above, we cultured with EGF and/or bFGF four slow-growing CRC-TIC spheroid lines that carried wild-type RAS/RAF genes (HC6T, HC9T, HC11T, HC21T). Because EGF/bFGF facilitated the growths of these spheroid lines substantially (FIG. 3A), we then quantified their effects by the luminescence-based growth monitoring. To calibrate the effects, we introduced the growth effect index (GEI) defined as the relative growth rate of a treated group to that of its solvent-only control in each paired assay. […] The extents of growth promotion by EGF and bFGF were different depending on the spheroid line. […] In another spheroid line (HC21T), the effects were similar between the two growth factors (FIG. 3B).

B1: EGF: epidermal growth factor, recombinant human protein (protein, UniProt P01133 23-1207, looked up)
Pro-epidermal growth factor: PQHWSCPEGTLAGNGNSTCVGPAPFLIFSHGNSIFRIDTEGTNYEQLVVDAGVSVIMDFHYNEKRIYWVDLERQLLQRVFLNGSRQERVCNIEKNVSGMAINWINEEVIWSNQQEGIITVTDMKGNNSHILLSALKYPANVAVDPVERFIFWSSEVAGSLYRADLDGVGVKALLETSEKITAVSLDVLDKRLFWIQYNREGSNSLICSCDYDGGSVHISKHPTQHNLFAMSLFGDRIFYSTWKMKTIWIANKHTGKDMVRINLHSSFVPLGELKVVHPLAQPKAEDDTWEPEQKLCKLRKGNCSSTVCGQDLQSHLCMCAEGYALSRDRKYCEDVNECAFWNHGCTLGCKNTPGSYYCTCPVGFVLLPDGKRCHQLVSCPRNVSECSHDCVLTSEGPLCFCPEGSVLERDGKTCSGCSSPDNGGCSQLCVPLSPVSWECDCFPGYDLQLDEKSCAASGPQPFLLFANSQDIRHMHFDGTDYGTLLSQQMGMVYALDHDPVENKIYFAHTALKWIERANMDGSQRERLIEEGVDVPEGLAVDWIGRRFYWTDRGKSLIGRSDLNGKRSKIITKENISQPRGIAVHPMAKRLFWTDTGINPRIESSSLQGLGRLVIASSDLIWPSGITIDFLTDKLYWCDAKQSVIEMANLDGSKRRRLTQNDVGHPFAVAVFEDYVWFSDWAMPSVMRVNKRTGKDRVRLQGSMLKPSSLVVVHPLAKPGADPCLYQNGGCEHICKKRLGTAWCSCREGFMKASDGKTCLALDGHQLLAGGEVDLKNQVTPLDILSKTRVSEDNITESQHMLVAEIMVSDQDDCAPVGCSMYARCISEGEDATCQCLKGFAGDGKLCSDIDECEMGVPVCPPASSKCINTEGGYVCRCSEGYQGDGIHCLDIDECQLGEHSCGENASCTNTEGGYTCMCAGRLSEPGLICPDSTPPPHLREDDHHYSVRNSDSECPLSHDGYCLHDGVCMYIEALDKYACNCVVGYIGERCQYRDLKWWELRHAGHGQQQKVIVVAVCVVVLVMLLLLSLWGAHYYRTQKLLSKNPKNPYEESSRDVRSRRPADTEDGMSSCPQPWFVVIKEHQDLKNGGQPVAGEDGQAADGSMQPTSWRQEPQLCGMGTEQGCWIPVSSDKGSCPQVMERSFHMPSYGTQTLEGGVEKPHSLLSANPLWQQRALDPPHQMELTQ
modifications: Pro-epidermal growth factor
notes: epidermal growth factor, recombinant human protein
For B1, the “extent of growth promotion, bFGF versus EGF” value was “vice versa”.
